The RNAGym collection of RNA variant scans (doi:10.1073/pnas.2313332121)

B1: TPR t1 (parent)
chain: GACCAAUCUGCCCUCAGAGCUCGAGAACAUCUUCGGAUGCAGAGGAGGCAGGCUUCGGUGGCGCGAUAGCGCCAACGUCCUCAACCUCCAAUGCAUCCCACCACAUGAUGAUGCCUGAAGAGCCUUGGUUUUUUG

Variants of: B1
Assay: polymerase ribozyme fitness, log enrichment relative to wild type (log ratio); higher = more active; in vitro selection for triplet polymerase activity
Procedure, shortened: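 Streptavidin-bead capture of gel-excised extended constructs, followed by RT-PCR, closed a single triplicate in vitro selection round. That round began by annealing PCR-built, transcribed mutant libraries of each subunit of a heterodimeric triplet polymerase ribozyme with a biotinylated primer, the partner subunit and triplets, then incubating them frozen at −7 °C. After Illumina sequencing of inputs and outputs, genotypes needed ≥10 input reads and ≥1 read per output. Fitness is the base-2 logarithm of genotype enrichment over wild-type enrichment, using inverse-variance-weighted replicate averages.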

Variant	polymerase ribozyme fitness (log ratio)
GACCAAUCUGCCCUCAGAGCGCGAGAACAUCUUCGGAUGCAGAGGACGCAGGCUUCGGUGGCGCGAUAGCGCCAACGUCCUCAAGCUCCAAUCCAUCCCUUCACAUGAUGAUGCCUGAAGAGCCUUGGUUUUUUG [U21G G47C C85G G93C A100U C101U]	-5.69
GACCAAUCUGCCCUCAGAGCUCGAAAACAUCUUCGGAUGCAGAGGAGGCAGGCAUCGGUGUCGCGAUAGCGCCAACGUCCUCAACCUCCAAUGCAUCCCACCACAUGAUGAUGCCUGAAGAGCCUUGGUUUUUUG [G25A U54A G61U]	-7.38
GACCAACCUGCCCUCAGAGCUCGAGAGCAUCUUCGGAUGCAGAGGUGUCAGGCUUCGGGUGCGCGAUAGCGCCAACGUCCUCAACCUCCAAUGCAUCCCACCACAUGAUGAUGCCUGAAGAGCCUUGGUUUUUUG [U7C A27G A46U G48U U59G G60U]	-3.46
GACCAAUCUGCCAUCAGAGCUCGAGAACAUCUUCGGAUGCAGGGGAGGCAGGCUUCGGUGGCGCGAUAGCGCCAACGUCCUCAACCUCCAAUGCAUCCCACCACAUGAUAAUGCCUGAAGAGCGUUGAUUUUUUG [C13A A43G G110A C124G G128A]	-6.67
GACCAAUCUCCCUUCAGAGCUCGAGAACAUCUUCGGAUGCAGAGGAGGCAGGCUUCGGUGGCGCGAUAGCGCCAACGGUCUCAACCUCUAAUGCAUCCCACCACAUGAUGAUGCCUGAAGAGCCUUGGUUUUUUG [G10C C13U U78G C79U C89U]	-0.171
GACCAAUCUGCCCUCAGAGCUCGAGAACAUCUUCGGAUGCAGAGGAGGCAGUCUUCGGUGGCACGAUAGCGCCAACGUCCUCAACCUCCAAUGCAUCCCACCACAUGAUGAUGCCUGAAGAGCCUUGGUUUUUUG [G52U G63A]	-1.95
GACCAAUCUGCCCUCAGAGCUCGAGAACAUCUUCGGAUGCAAAGGAGGCAGGCUUCGGUGGCGCGAUAGCGCCAACGUCCUCAACCUCCAAUGCAUCCCACCACAUGAUGAUGCCUCAAGAGCCUUGGUUUUUUG [G42A G117C]	-3.8
GACCAAUCUGCCCUCAGAGCUCGAGAACAUCUUCGGAUGCAGAGGAGGCAGGCUUCGGUGGCGCGAUAGCGCCAACGUCCUCAACCUCCAAUGCAUCCCACCACAUGAAGAUGCCUUAAGAGCCUUGGUUUUUUG [U109A G117U]	-5.72
GACCAAUCUGCGCUCAGAGCUCGAGAACAUCUUCGGAUGCAGUGCAGGCAGGCUUCGGUGGCGCGAUAGCGCAAACGACCUCAACCUCCAAGGCAUCCCACCACAUGAUGAUGCCUGAAGAGCCUUGGUUUUUUG [C12G A43U G45C C73A U78A U92G]	-2.67
GACCAAUCUGCCCUCAGAGCUCGAGAACAUCUUCGCAUGAAGAGGAGGCAGGCUUCGGUGGCGCGAUAGCGCCAACGUCCUCAACCUCCAAUGCAUCCCAACAUAUGAUGAUGCCUGAAGUGCCUUGGUUUUUUG [G36C C40A C101A C104U A121U]	-1.4
GACCAAUCUGUCCUCAAAGCUCGAGAACAUCUUCGGAUGCAGAGGGGGCAGGCUUCCGUGGCGCGAUAGCGUCAACGUCCUCAACCUCCAAUGCAUCCCACCACAUGAUGAUGCAUGAACAGCCUUGGUUUUUAG [C11U G17A A46G G57C C72U C115A G120C U134A]	-0.588
GACCAAUUUGCCGUCAGAGCUCGAGAACUUCUUCGGAUGCAGAGGAGGCAGGCUUCGGUGGCGCGAUAGCGCCAACGUCCUCAACCUCCAAUGCAUCCCACCACAUGAUGAUGCCUGAAGAACCUUGGUUUUUUG [C8U C13G A29U G122A]	-2.49
GACUAAUCUGCCCUCAGAGCUCGAGAACAUCUUCGGAUGCAGAGGAGGCAGGCUUCGGUGGCGCGAUAGCGCCAUCGUCCUCAACCUCCAAUGCCACCCACCACAUGAUGAUGCCUGAAAAGCCUUGGUUUUUUG [C4U A75U A95C U96A G120A]	-1.94
GACCAAUCUGCCCUCAGAGCUCGAGAACAUGUUCGGAUGCAGAGGAGGCAGGCUUCGGUGGCGCGAUAGAGCCAACGUCCUCAACCUCCAAUGCAUCCCACCACAUGAUGAUGCCUGAAGAGCCUUGGUUUUUUG [C31G C70A]	-7.42
GACCAAUCUGCCCUCAGAGCUCGAGAACAUCUUCGGAUGCAAAAGAUGCAGGCUUCGGUGGCGUGAUAGCGCCAACGUCCUCAACCUCCAAUGCAUCCCACCACAUGAUGAUGCCUGAAGAGCCUUGGUUUUUUG [G42A G44A G47U C64U]	-4.22
GACCAAUCUGCCCUCAGAGCUCGAGAACAUCCUCGGAUGCAGAGGAGGCAGGCUUCGGUGGCGCGAUAGCGCCAACGUCCUGAACCACCAAUGCAUCCCACCACAUGAUGAUGCCUGAAGAGCCUUGGUUUUUUG [U32C C82G U87A]	-2.42
GACCAAUCUGCCCUCAGAGCUCGAGAACAUCUUCGGAUGCAGAGGAGGCAGGCUUCGGUAGCGCGAUAGCGCCAACGUCCUCAACCUCCAAUGCAUCCCACCACAUGAUGAUGCCUGAAGGGCCUUGGUUUUUUG [G60A A121G]	1.66
GACCAAUCUGCCCUCAGAGCUCGAGAACAUCUUCGGAUGCAGAGGAGGCAGGCUUCGGUGGCGCGAUAGCGCCAACGUCCUCAACCUCCAAUGCAUCCCACUACAUGAUGAUGCCUGAUGAGACUAGGUUUUUUG [C102U A119U C123A U126A]	-2.22
GACCAAUCUGCCCUCAGAGCUCGAGAACAUCUUCGGAUGCAGAGGAAGCAGGCUUCGGUGGCGCGAUAGCGCCAACGUCCUCAACCUCCAAUGGAUCCCAUCACAUGAUGAUGCCUGAAGAGCCUUGGUUUUUUG [G47A C94G C101U]	-2.16
GACCAAACGGCCCUCAGAGCUCGAGAACAUCUUCGGAUGCAGAGGAGGCAGGCUUCGGUGGCGCGAUAGCGCUAACGUGCUCAGCCUCCAAUGCACCCCACCACAUGAUGAUGCCUGAAGAGCCUUGGUUUUUUG [U7A U9G C73U C79G A84G U96C]	-2.27
GACCAAUCUACCCUCAGAGCUCGAGAACAUCUUCGGAUGCCGAGGAGGCAGUCUUCGGUGGCGCGAUAGCGCCAACGUUCUGAACCUCCAAUGCAUCCCACCACAUGAUGAUGCCUGAAGAGCCUUGGUGUUUUG [G10A A41C G52U C79U C82G U130G]	-2.72
